Columns and labels:
[1] = molecular target: A. fulgidus humanized ferritin (chimeric ferritin: Archaeoglobus fulgidus ferritin with a grafted surface loop of human H ferritin) (Archaeoglobus fulgidus); test: SEC; HP-SEC of the HumFt-G4 PAMAM/FITC nanoparticle; mobile phase 20 mM HEPES pH 7.4 with 50 mM MgCl2; UV 220 nm and fluorescence; dimers to 24-mer
[2] = molecular target: A. fulgidus humanized ferritin (chimeric ferritin: Archaeoglobus fulgidus ferritin with a grafted surface loop of human H ferritin) (Archaeoglobus fulgidus); test: negative staining electron microscopy; TEM, HumFt 0.02 mg/mL with 50 mM Mg2+ and/or G4 PAMAM; 2% uranyl acetate or 4% ammonium molybdate
[3] = molecular target: A. fulgidus humanized ferritin (chimeric ferritin: Archaeoglobus fulgidus ferritin with a grafted surface loop of human H ferritin) (Archaeoglobus fulgidus); test: SEC; HP-SEC, no MgCl2; open HumFt 5 mg/mL (10 uM 24-mer) added to G3, G4 or G5 PAMAM at HumFt:PAMAM 1:10, 1:20, 1:30; mobile phase 20 mM HEPES pH 7.4; UV 220 nm; dimers to 24-mer
[4] = molecular target: A. fulgidus humanized ferritin (chimeric ferritin: Archaeoglobus fulgidus ferritin with a grafted surface loop of human H ferritin) (Archaeoglobus fulgidus); test: SEC; HP-SEC of the HumFt-PAMAM nanoparticle after up to 24 h at 37 °C in 20 mM HEPES with 50 mM MgCl2, in PBS, or in RPMI 1640 with 10% FCS
[5] = molecular target: A. fulgidus humanized ferritin (chimeric ferritin: Archaeoglobus fulgidus ferritin with a grafted surface loop of human H ferritin) (Archaeoglobus fulgidus); test: negative staining electron microscopy; TEM, HumFt 0.02 mg/mL in HEPES buffer without magnesium ions; 2% uranyl acetate or 4% ammonium molybdate
[6] = molecular target: A. fulgidus humanized ferritin (chimeric ferritin: Archaeoglobus fulgidus ferritin with a grafted surface loop of human H ferritin) (Archaeoglobus fulgidus); test: SEC; HP-SEC of HumFt with divalent cations only (no PAMAM); dimers to 24-mer

Substance: A. fulgidus humanized ferritin (chimeric ferritin: Archaeoglobus fulgidus ferritin with a grafted surface loop of human H ferritin)
- percent dimeric form [1]: < 2%
- stoichiometry N [1]: 24
- stoichiometry N [2]: 24
- stoichiometry N [3]: 24
- percent 24-mer [4]: > 95%
- stoichiometry N [5]: 2
- percent dimeric form [6]: 10 to 15%

From article PMC8190868
